This note sets out measurements from patent US20240026407A1, “MODIFICATION OF SAPONINS” (GLAXOSMITHKLINE BIOLOGICALS SA, priority 2020, published 2024).

Holding throughout (format): biochemical, Quillaja saponaria
A short description of test [1]: Experiment 5-2: screening of additional glucosidases for deglycosylation with QS-18 in crude bark extract (80%) at pH 6 and 35 deg C. The note with it: CBE 80%, pH 6, 35 deg C, 18 hours; UV HPLC. The method, boiled down: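 Clarified glucosidase lysate (prepared at pH 6) was incubated with pH 6-adjusted crude bark extract at 35 deg C with shaking for 18 hours. Reactions were quenched with MeCN containing 2% AcOH and hexanophenone, then analysed by UV HPLC.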

Test [2] in a line: Experiment 5-3: screening of additional glucosidases for deglycosylation with QS-18 in treated bark extract (80%) at pH 6 and 35 deg C. The settings on record: TBE 80% (QS-21 approx. 4 g/L), pH 6, 35 deg C; UV HPLC. As to the method:
Experiment 5-1 was repeated, replacing CBE with Treated Bark Extract (TBE) at pH 6. TBE was prepared from CBE by PVPP treatment and concentration, to provide TBE with a QS-21 concentration of approximately 4 g/L. TBE was adjusted to pH 6 by dropwise addition of 2M NaOH with stirring.

Test [3] is described as follows: Experiment 5-1: screening of additional glucosidases for deglycosylation with purified QS-18 (0.04 mg/ml) at pH 7.5 and 30 deg C. The settings on record: pH 7.5, 30 degrees C, 18 hours, LCMS/MS. As to the method:
The 94 additional genes, together with positive control (DNA encoding SEQ ID No. 262) and negative control, were transformed, expressed, lysed and reacted in the same manner as described above for Experiment 4-1, except the reaction was incubated at 30 degrees C. for 18 hours.
Samples were analysed by LCMS/MS according to the procedure in Experiment 4-1.

B1: 864 (protein, listed as Stagonospora sp.)
chain: MPYKVNDESREGEGLNALLGALTLDEKISLLSAKNIWETPEVERVGIPSLKVTDGPNGARGGEFFDGTTAACFPACVSLAATFDRALSRQVGRALGQEAITKGAYVVLGPTVCCHRSPLGGRNFEAFSEDPVLSGALASEYVKGLQEERVAATVKHFLANEQDTRRFSVDQTISERALREIYLKPFEIVAKQADPWCFMSSYPKINGKHVDAQSKFLIDILRKEWGYEGMVMSDWGAASTVEGIKYGLDMEMPGPPRQREANLVRNAVKKGQISEGDIDARVLSTLNLLKKVGKFSDRKDTPKEQAIDRPEHRALIRKAGREGIVLLKNQNNILPIDIKKTQKVALLGPLAKYAAAHGGGSASLNCHYKITPYDAFTERLGKDVEITHSKGAHIFRVYPDLDAGCKNAHGNVGFLAEYFMEGDIEPSSVPFRIEEFPRGSFNTLMNTNVTGCKSVRFTTTYRPPVTGKHYLSFSGLGPSHLSINGVMVAEQKNSTKDAMSFFLGVQEEERVQFDFDAAKTYDLIMETHPSPTNNAELYLMEGQTSIHLGFIAQAEMEQDVLAEAVDLAKDADLAIVFVGNTTQWETEGQDLSSMTLPADGSQDNLIASVVAANPKTIVVNTTGVPVELPWLDDVPAFLQAWYAGQETGNAILDVLLGEMSPSGKLPISWPKKYEHTGCYGNFGLDSFDSRKVEYVEGVFVGYRWFDRQWGHDKEVRFPFGYGLSYTEFSITDTRISGSIANDKNARVTVAANVKNVGSMSGSEILQVYLEPPVEEGIDRPVKGLVGFVKVELQPKEEKTVEVVFARDAAAFWDEAANEWAVSMGLHHIVVATSAAPVDIKARLELHVENAFKFDP
On to B1, for which the “Experiment 5-2 % conv” value in test [1] was less than 0.5%. Besides, the “Experiment 5-3 % conv” value in test [2] is recorded as less than 0.5%. For the same molecule, the “Experiment 5-1 % conv” value in test [3] was 3.9%.

B2: 862 (protein, listed as Bifidobacterium thermacidophilum)
chain: MDATTGTNKAPAPAQARQGNGRGGNEGRNASEIRHRVDDLTLEQKASLTSGADAWHVQGIDECGIPGYMITDGPHGLRKARPAEEQKTGLGDAVPVTCFPPAAGLSSSWDPGLVREVGEAMGEECIQEKVAVILGPAVNIKRNPLGGRCFEYWSEDPFLAGHEAVGIVEGVQSKGVGTSLKHFAANNQETDRLRISATISPRALREIYLPAFEYIVKTAQPWTVMCSYNRINGVHSAQNRWLLTDVLRREWGFQGIVMSDWGADHDRVASLNAGLNLEMPPSGTDDQIVAAVRDGRIAPEQLDSMAQGMIDLVAKAQPAMSRDGYRYDRDRHYDIARRAARESMVLLKNEQGTLPVRPGVRVAVIGEFARTARYQGGGSSHITPDRMSSFLDATARRGEQVDFAPGFTLDLDPADPVLEAQAIETARHADIVLMFMGLPEAAESEGFDRTSLDIPAKQTSLLHKISAVNPHVAVILSNGSVVSVAPWCDDAQAILESWLLGEAGGDALADVVFGDVSPSGKLAQTIPLDINDDPTMLNWPGEEGHVDYGEGVFVGYRYYDTYRKPVAYPFGFGLSYATFDVHDARVRRLGVDDAARVAAERAAGDAAQGNDVARADGAAHVDGACGAVVRVDATVTNTSDAPGAQVVEIYVAPGKSQVARPVHELKGFARVDLAPGESKAVSITLDERAFAYWSQRFDDWHVEAGDYTVEVGTSSRDIVARIPAHLDGDGKTMPLDEWSTFGEWAADPVGARVVEAVGREADQGRLPRLPQNGVMRIFLMAAPVNSLQMILGEEGLEVARFMLDEYRRIRG
As to B2, the “Experiment 5-2 % conv” value in test [1] is less than 0.5%. In test [2], the “Experiment 5-3 % conv” value is less than 0.5%. The “Experiment 5-1 % conv” value in test [3] is 4.2%.

B3: 809 (protein, listed as Rhodococcus erythropolis)
chain: MELTAATGRNDVTENYVDGLSLEEKASLTSGSDFWHSQSVAGIESILLTDGPHGVRKQPEGGDALGLGHSIPATCFPPAVGLGSSWNLDLIRQVGEALGDEAKAEQVSVLLGPGINIKRSPLCGRNFEYVSEDPFLSGRVAAALITGIQSRGVGTSLKHFAANNQEHDRMRVSADVDERTLREIYLAGFEYAVKTAAPTTVMCSYNKINGVYSSQNHWLLTEVLREQWGFDGLVVSDWGAVNDRVAALAAGLDLEMPPTGTDTQIVDAVRGGDLDESVLTTAAERLSTLVKRTAAARTEGHTYDVERHHELARTAAAESAVLLANDGELLPLTPGGQTVAVIGEFACSPRYQGAGSSQVVPTKLDNALDAILDLEGADRVTFAPGFTFDGTPDDHMVTEAVDAARRADVAVLFLGLPSATESEGFDRTDIELPADQIALLEAVHGANPNTVVVLANGGVVSIEPWKDHAAAILEGWLLGQAGGSAIADLLFGITNPSGRLTETIPLRLQDNPSYLHFPGSQQHVRYGEGLYVGYRYYDSALREVAYPFGFGLSYTTFDITDTSVDAGKNSAEVTVTVRNSGDRSGSTVVQVYVHDASASIDRPAQELKGFAKVHLDPDESATVTITLDTRAFAYWSVAAQDWAIEPGDYEIRVGFSSRDIATTDTITLAGNVGVGTLDAMSTIGEWLAHPVGSAVLGAAMAAAAGDGAQAVSPEMMALAGSMPLGKLATFGLGITEEQVAQLVAAAAQPGS
Take B3: in test [1], the “Experiment 5-2 % conv” value is given as less than 0.5%. Further, the “Experiment 5-3 % conv” value in test [2] is reported as less than 0.5%. For the same molecule, the “Experiment 5-1 % conv” value in test [3] is reported as 6.3%.

B4: 848 (protein)
chain: MTLEEKVSMVAGADAWHSTGVERLGIPAIKVTDGPNGARGGDFGGGVGSACFPVGVCLGSTWNTALIERVGQALGQEVQSKQAHILLAPTVNIHRSPLNGRNFECYSEDPYLTARIAAAYITGVQKQGVGACIKHFVCNDSEFERHSISSEVGERALREIYLPPSETAVREAGVWAVMSAYNKLNGTYCSENPYTLLEILKGEWGFEGIVISDWGGTYSTVEAAANGLDLEMPGPARWMGEKLLQAMRDGQVSGPKKLGEAVDDKVRRLLWTIEKAGAQLGPEPPEQAIDRPEHRALIRQAAGEGIVLLKNDGVLPLDGARVKRIAVIGPNAAEAKIMGGGSAQVKAHYAVSPLDGIRARAGEAVDVQCALGCTNYREIPELKTEWLTPVGGGESGWTVAYYNNLDLAGDPVRAETTDRTRMMWFGQVAPGVDRECFSARLSGTLTVPQSGTYTLSLNSAGVSRIAIDGELVLDNWTDYRPSRGPFDRDRKVPTAEVELTAGQGYTFVVEYSKQQSPRFAMLRVGCLPAQPADLMERAVQAAAKADVALVFIGTSGEWESEGFDRPDMELPGRQVELLEAVAAANPNTVAVLNTGSPVSVRWLDKVAALVEAWFPGQECGNAIADVLFGDVNPSGRLSQTWPVRLQDNPAYINYPGENGRVLYGEGLFVGYRYYEKKQIEPRFPFGHGLSYTTFEYGALRLQSEYTLGEPIAVSVDVTNTGPVAGQEVVQLYVRDEESSLVRPEKELKAFAKLALEPGETQTVTLTLDERALSFYDDAKAGWVAEAGEFTVLVGASSRDIRCTARFTLTVPPDRS
modifications: uncultured microorganism
On to B4, for which the “Experiment 5-2 % conv” value in test [1] is less than 0.5%. The “Experiment 5-3 % conv” value in test [2] is less than 0.5%. Further, the “Experiment 5-1 % conv” value in test [3] is 3.8%.

B5: 805 (protein)
chain: MLDIEKLIDEMTLEEKAGLCSGDDMWHTKAVERLGIPRIKMSDGPHGMRTFDDNGKVIPAVCFPTGSALAASFDTELVERVGAAIGEAAKTNGVHTVLGPAVNMKRSPLCGRNFEYLSEDPYLAGKLGSAMVRGIQSKGVGACPKHFAVNNQETRRMSVSADLSERTLREVYLPAFETIVKESSPHTMMCAYNRINGTYASENEHLLDEILRKEWGYQGIVMTDWSAMNRRPRALQAGLELEMPSSAGVNDEKIVEAVKAGDLSIEVLDEAVRRLLTWINAELQGRTESVCDLGVQRELAREAAGKSAVLLKNDDVLPLRKGDKIAFIGGFADKPRFEGGGSSHVSVEHMVNAIDAAKDIPNITYTEGFNTDDALSDYELVAEAVRIASEADVAVIFAGLPAAFESEGHDRTTLEIPESQNKLIAAISAVQPKTVVVFHGGSPVYMPWRKDVAAILYMYLGGQEVGSASVDLLFGDRNPSGKLAETFPLKLEDTPCYMNFPGDGNNAEYSEGIYIGYRWYDKRKIAVEYPFGFGMSYSDFIYRQIRSANSRITDTDTLKIYVDVQNRGEYAGEEIVQLYVQPSKARQGVRPVKELKGFKKMMIAPGETKTVCFELDKRSFAEYKPEISGWYAATGEYTILAGGSSDNLPLQVKVYVESTDTIPLVYNDYTTIGDLWDSGLDVNEVLDALDAKQTDLSALGLPADKMDRAIHMEEVKRGMPIHAVISMGGRDMNKIYQALLKVDGLEGKENIPL
modifications: uncultured Clostridium sp.
As for B5, the “Experiment 5-2 % conv” value in test [1] is given as less than 0.5%. The “Experiment 5-3 % conv” value in test [2] is on record as less than 0.5%. Also, in test [3], the “Experiment 5-1 % conv” value is given as 3.8%.

B6: 875 (protein, listed as Exophiala spinifera)
chain: MGSYSGSQQGFESIISGLTVEEKATLLSGADFWTTSPVTRVGIPALKVSDGPNGARGGHFQGKTTSACFPASVSLAASFDREFAYKIGRALGQETKTKGAHVLLGPTVCHHRDPRGGRNFESFSEDPLLAGELASEWIAGLQSEGVGATVKHYAVNEQETRRFTIDARVDQRALREIYLKPFEIAVKRADPWAIMTSYNLVNGKHADEHKELITDILRGQWGFKGLVMSDWGGTNSVAPSLNAGHDLEMPGPPLKRTVDNIQRALQTGELTEDTLNQRVGNVLKLLQRAGKFENPEIAEEQAVDLPEHRSLIRQAAAESMVLLKNTNNILPLKSTNTKSIALLGLAREYLGHGGGSASVNSHHKVTAYEALQAAVGSSVQLNYAEGARIVRNLSPLSENVYNEEGVPGFTMKTFSKLNGDNPTVSTVPSSVYRTLEPSSIDQMTLLGTFKPKTSGLHYISLSTLGGTRVYINDELVFDYSNSQTTDIMAFLIGSPGEDKKRYLFTAGESYRIRIEAKATKDTISGFSLFTKEAIGFSLGFALESEHDADLLTAAIEAAKSSDVAVVFVGHTPIWESEGADRSGMDLPKDGSLDALVVAAAKVNPNTVVVNSTGSAISMPWIEDVAAVVQAWFPGQEAGHSIADVLLGKVTPSGKLPVTFPRAITDVPSYENFPGDIKNEVVHYKESIYTGYRHFDRRPEGVLFPFGFGLSYTTFDVVVTSVSRTKLRNHETLTVSADVTNTGTTEGAEVVQVYVGAGEGTSAIDRPAKELAGFAKVHLRPGEARKVAITFGRDSVAYWNESRDKWSVDKGAYTIYVGTSSVDIAGKLEVEVPEAFDFDP
As for B6, the “Experiment 5-2 % conv” value in test [1] is recorded as less than 0.5%. Moreover, the “Experiment 5-3 % conv” value in test [2] was less than 0.5%. For the same molecule, the “Experiment 5-1 % conv” value in test [3] is on record as 4.7%.
